Twelve molecules from publication PMC4127636 (The Biochemical journal, 2012) can be followed below.

In one series the target is T1, Atu1476 (Agrobacterium fabrum, UniProt A9CJ11).
T1 sequence (A9CJ11 1-277): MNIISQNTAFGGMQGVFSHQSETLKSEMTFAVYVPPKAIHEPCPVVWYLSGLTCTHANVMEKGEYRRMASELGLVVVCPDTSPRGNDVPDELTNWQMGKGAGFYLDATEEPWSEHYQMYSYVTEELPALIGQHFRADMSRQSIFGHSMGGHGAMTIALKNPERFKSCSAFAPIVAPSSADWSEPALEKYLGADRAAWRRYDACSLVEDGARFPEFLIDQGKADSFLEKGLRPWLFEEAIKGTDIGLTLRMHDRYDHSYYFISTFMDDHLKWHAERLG
Description: esterase activity, temperature profile. Format: biochemical. The conditions noted are these: 50 mM potassium Hepes pH 8.0; temperature varied.

A further series has as its target T2, BioH (Escherichia coli, UniProt P13001).
T2 sequence (P13001 1-256): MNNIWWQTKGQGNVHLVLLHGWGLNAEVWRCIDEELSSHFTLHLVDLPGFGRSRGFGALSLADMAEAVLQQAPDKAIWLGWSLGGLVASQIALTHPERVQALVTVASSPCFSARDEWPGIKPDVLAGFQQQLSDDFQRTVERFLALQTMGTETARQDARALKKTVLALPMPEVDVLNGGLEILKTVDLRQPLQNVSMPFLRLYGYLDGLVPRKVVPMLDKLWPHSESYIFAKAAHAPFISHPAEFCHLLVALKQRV
Description: esterase activity, temperature profile. Type of series: biochemical. The conditions noted are these: 50 mM potassium Hepes pH 8.0; temperature varied.

Another series addresses T3, YeiG (Escherichia coli, UniProt P33018).
T3 sequence (P33018 1-278): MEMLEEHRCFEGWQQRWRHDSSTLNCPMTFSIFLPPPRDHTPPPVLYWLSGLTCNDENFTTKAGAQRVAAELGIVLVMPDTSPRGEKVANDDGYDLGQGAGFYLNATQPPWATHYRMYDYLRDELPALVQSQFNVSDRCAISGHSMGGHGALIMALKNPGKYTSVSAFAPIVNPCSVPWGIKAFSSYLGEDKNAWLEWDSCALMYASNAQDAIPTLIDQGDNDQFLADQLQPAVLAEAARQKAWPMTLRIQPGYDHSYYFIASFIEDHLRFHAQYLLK
Description: esterase activity, temperature profile. Format: biochemical. The conditions noted are these: 50 mM potassium Hepes pH 8.0; temperature varied.

Substrate in series [1]: CCC(=O)Oc1ccc([N+](=O)[O-])cc1
Nature of the series: spectrophotometric esterase assay. The conditions noted are these: 0.4 M NaCl, 50 mM potassium Hepes pH 8.0, 20°C. Type of series: biochemical, Oleispira antarctica.

Substrate in series [2]: CCCC(=O)Oc1ccc([N+](=O)[O-])cc1
Nature of the series: spectrophotometric esterase assay. Format: biochemical, Oleispira antarctica. The conditions noted are these: 0.4 M NaCl, 50 mM potassium Hepes pH 8.0, 20°C.

Substrate in series [3]: CCC(=O)Oc1cccc2ccccc12
Nature of the series: spectrophotometric esterase assay. Format: biochemical, Oleispira antarctica. The conditions noted are these: 0.4 M NaCl, 50 mM potassium Hepes pH 8.0, 20°C.

Substrate in series [4]: CC(=O)Oc1cccc2ccccc12
Nature of the series: spectrophotometric esterase assay. Type of series: biochemical, Oleispira antarctica. The conditions noted are these: 50 mM potassium Hepes pH 8.0, 20°C.

Substrate in series [5]: CCCC(=O)Oc1cccc2ccccc12
Description: spectrophotometric esterase assay. The conditions noted are these: 0.4 M NaCl, 50 mM potassium Hepes pH 8.0, 20°C. Format: biochemical, Oleispira antarctica.

Substrate in series [6]: CC(=O)Oc1ccc([N+](=O)[O-])cc1
Nature of the series: spectrophotometric esterase assay. The conditions noted are these: no salt, 50 mM potassium Hepes pH 8.0, 20°C. Type of series: biochemical, Oleispira antarctica.

In general, Km refers to the concentration of substrate that gives half-maximal velocity. The term kcat denotes the number of substrate molecules converted per active site and unit of time at saturation. A word on the kcat/Km: it is the second-order rate constant that governs catalysis at low substrate concentration.

Regarding `CCCC(=O)Oc1ccc([N+](=O)[O-])cc1` [pNP-butyrate], the “esterase activity, temperature profile” value on Atu1476 was “using α-naphthyl acetate (A), pNP-butyrate (B and D) and pNP-propionate (C) as substrates”; on BioH it was “using α-naphthyl acetate (A), pNP-butyrate (B and D) and pNP-propionate (C) as substrates”.

On to `CCC(=O)Oc1ccc([N+](=O)[O-])cc1` [pNP-propionate], for which the “esterase activity, temperature profile” value on YeiG was “using α-naphthyl acetate (A), pNP-butyrate (B and D) and pNP-propionate (C) as substrates”.

B1: OLEI01171 (Oleispira antarctica) (protein)
chain: MSIENLSSNKSFGGWHKQYSHVSNTLNCAMRFAIYLPPQASTGAKVPVLYWLSGLTCSDENFMQKAGAQRLAAELGIAIVAPDTSPRGEGVADDEGYDLGQGAGFYVNATQAPWNRHYQMYDYVVNELPELIESMFPVSDKRAIAGHSMGGHGALTIALRNPERYQSVSAFSPINNPVNCPWGQKAFTAYLGKDTDTWREYDASLLMRAAKQYVPALVDQGEADNFLAEQLKPEVLEAAASSNNYPLELRSHEGYDHSYYFIASFIEDHLRFHSNYLNA
As for B1, the Michaelis constant (Km) turned out to be 700 ± 200 µM in series [1]; 900 ± 300 µM in series [2]; 200 ± 30 µM in series [3]; 400 ± 30 µM in series [4] (no salt); 200 ± 40 µM in series [5]; 700 ± 100 µM in series [6]. Besides, the kcat in [1] was found to be 0.3 ± 0.03 s⁻¹; in series [2] it was 0.2 ± 0.03 s⁻¹; in [3], 1.5 ± 0.1 s⁻¹; in [4] (no salt) it was 0.8 ± 0.02 s⁻¹; in series [5] it was 0.06 ± 0.01 s⁻¹; in series [6], 0.2 ± 0.03 s⁻¹. Further, the kcat/Km in series [1] turned out to be 400 M⁻¹ s⁻¹; in series [2] it was 200 M⁻¹ s⁻¹; in series [3] it was 8000 M⁻¹ s⁻¹; in series [4] (no salt), 2000 M⁻¹ s⁻¹; in series [5], 300 M⁻¹ s⁻¹; in [6], 300 M⁻¹ s⁻¹.

B2: OLEI01171 (Oleispira antarctica; S173A) (protein)
chain: MSIENLSSNKSFGGWHKQYSHVSNTLNCAMRFAIYLPPQASTGAKVPVLYWLSGLTCSDENFMQKAGAQRLAAELGIAIVAPDTSPRGEGVADDEGYDLGQGAGFYVNATQAPWNRHYQMYDYVVNELPELIESMFPVSDKRAIAGHSMGGHGALTIALRNPERYQSVSAFAPINNPVNCPWGQKAFTAYLGKDTDTWREYDASLLMRAAKQYVPALVDQGEADNFLAEQLKPEVLEAAASSNNYPLELRSHEGYDHSYYFIASFIEDHLRFHSNYLNA
As for B2, in series [4] (0.4 M NaCl), the Km is 600 ± 100 µM, the kcat worked out at 5.3 ± 0.3 s⁻¹ and the kcat/Km is 9000 M⁻¹ s⁻¹.

B3: OLEI01171 (Oleispira antarctica; C58A) (protein)
chain: MSIENLSSNKSFGGWHKQYSHVSNTLNCAMRFAIYLPPQASTGAKVPVLYWLSGLTASDENFMQKAGAQRLAAELGIAIVAPDTSPRGEGVADDEGYDLGQGAGFYVNATQAPWNRHYQMYDYVVNELPELIESMFPVSDKRAIAGHSMGGHGALTIALRNPERYQSVSAFSPINNPVNCPWGQKAFTAYLGKDTDTWREYDASLLMRAAKQYVPALVDQGEADNFLAEQLKPEVLEAAASSNNYPLELRSHEGYDHSYYFIASFIEDHLRFHSNYLNA
With B3, in [4] (0.4 M NaCl), the Km is 200 ± 10 µM, the kcat stood at 0.9 ± 0.02 s⁻¹ and the catalytic efficiency (kcat/Km) was found to be 5000 M⁻¹ s⁻¹.

B4: OLEI01171 (Oleispira antarctica; N226A) (protein)
chain: MSIENLSSNKSFGGWHKQYSHVSNTLNCAMRFAIYLPPQASTGAKVPVLYWLSGLTCSDENFMQKAGAQRLAAELGIAIVAPDTSPRGEGVADDEGYDLGQGAGFYVNATQAPWNRHYQMYDYVVNELPELIESMFPVSDKRAIAGHSMGGHGALTIALRNPERYQSVSAFSPINNPVNCPWGQKAFTAYLGKDTDTWREYDASLLMRAAKQYVPALVDQGEADAFLAEQLKPEVLEAAASSNNYPLELRSHEGYDHSYYFIASFIEDHLRFHSNYLNA
B4: in series [4] (0.4 M NaCl), the Michaelis constant (Km) amounted to 500 ± 100 µM, the kcat amounted to 1.7 ± 0.1 s⁻¹ and the kcat/Km amounted to 3000 M⁻¹ s⁻¹.

B5: OLEI01171 (Oleispira antarctica; K66A) (protein)
chain: MSIENLSSNKSFGGWHKQYSHVSNTLNCAMRFAIYLPPQASTGAKVPVLYWLSGLTCSDENFMQAAGAQRLAAELGIAIVAPDTSPRGEGVADDEGYDLGQGAGFYVNATQAPWNRHYQMYDYVVNELPELIESMFPVSDKRAIAGHSMGGHGALTIALRNPERYQSVSAFSPINNPVNCPWGQKAFTAYLGKDTDTWREYDASLLMRAAKQYVPALVDQGEADNFLAEQLKPEVLEAAASSNNYPLELRSHEGYDHSYYFIASFIEDHLRFHSNYLNA
As for B5, in series [4] (0.4 M NaCl), the Km came to 400 ± 10 µM, the turnover number (kcat) came out at 1.2 ± 0.1 s⁻¹ and the kcat/Km amounted to 3000 M⁻¹ s⁻¹.

B6: OLEI01171 (Oleispira antarctica; N226K) (protein)
chain: MSIENLSSNKSFGGWHKQYSHVSNTLNCAMRFAIYLPPQASTGAKVPVLYWLSGLTCSDENFMQKAGAQRLAAELGIAIVAPDTSPRGEGVADDEGYDLGQGAGFYVNATQAPWNRHYQMYDYVVNELPELIESMFPVSDKRAIAGHSMGGHGALTIALRNPERYQSVSAFSPINNPVNCPWGQKAFTAYLGKDTDTWREYDASLLMRAAKQYVPALVDQGEADKFLAEQLKPEVLEAAASSNNYPLELRSHEGYDHSYYFIASFIEDHLRFHSNYLNA
For the molecule B6, in series [4] (0.4 M NaCl), the Km came to 400 ± 100 µM, the kcat was found to be 3 ± 0.2 s⁻¹ and the kcat/Km is 8000 M⁻¹ s⁻¹.

B7: OLEI01171 (Oleispira antarctica; S59A) (protein)
chain: MSIENLSSNKSFGGWHKQYSHVSNTLNCAMRFAIYLPPQASTGAKVPVLYWLSGLTCADENFMQKAGAQRLAAELGIAIVAPDTSPRGEGVADDEGYDLGQGAGFYVNATQAPWNRHYQMYDYVVNELPELIESMFPVSDKRAIAGHSMGGHGALTIALRNPERYQSVSAFSPINNPVNCPWGQKAFTAYLGKDTDTWREYDASLLMRAAKQYVPALVDQGEADNFLAEQLKPEVLEAAASSNNYPLELRSHEGYDHSYYFIASFIEDHLRFHSNYLNA
On to B7, for which, in [4] (0.4 M NaCl), the Km was 400 ± 10 µM, the kcat was 0.8 ± 0.1 s⁻¹ and the kcat/Km was determined as 2000 M⁻¹ s⁻¹.

B8: OLEI01171 (Oleispira antarctica; Y98A) (protein)
chain: MSIENLSSNKSFGGWHKQYSHVSNTLNCAMRFAIYLPPQASTGAKVPVLYWLSGLTCSDENFMQKAGAQRLAAELGIAIVAPDTSPRGEGVADDEGADLGQGAGFYVNATQAPWNRHYQMYDYVVNELPELIESMFPVSDKRAIAGHSMGGHGALTIALRNPERYQSVSAFSPINNPVNCPWGQKAFTAYLGKDTDTWREYDASLLMRAAKQYVPALVDQGEADNFLAEQLKPEVLEAAASSNNYPLELRSHEGYDHSYYFIASFIEDHLRFHSNYLNA
With B8, in series [4] (0.4 M NaCl), the Km turned out to be 1700 ± 300 µM, the kcat came to 2.9 ± 0.3 s⁻¹ and the kcat/Km is 2000 M⁻¹ s⁻¹.

B9: OLEI01171 (Oleispira antarctica; A224K) (protein)
chain: MSIENLSSNKSFGGWHKQYSHVSNTLNCAMRFAIYLPPQASTGAKVPVLYWLSGLTCSDENFMQKAGAQRLAAELGIAIVAPDTSPRGEGVADDEGYDLGQGAGFYVNATQAPWNRHYQMYDYVVNELPELIESMFPVSDKRAIAGHSMGGHGALTIALRNPERYQSVSAFSPINNPVNCPWGQKAFTAYLGKDTDTWREYDASLLMRAAKQYVPALVDQGEKDNFLAEQLKPEVLEAAASSNNYPLELRSHEGYDHSYYFIASFIEDHLRFHSNYLNA
Take B9: in series [4] (0.4 M NaCl), the Michaelis-Menten constant (Km) turned out to be 300 ± 40 µM, the kcat was 1.1 ± 0.1 s⁻¹ and the kcat/Km was found to be 4000 M⁻¹ s⁻¹.

B10: OLEI01171 (Oleispira antarctica; N62A) (protein)
chain: MSIENLSSNKSFGGWHKQYSHVSNTLNCAMRFAIYLPPQASTGAKVPVLYWLSGLTCSDEAFMQKAGAQRLAAELGIAIVAPDTSPRGEGVADDEGYDLGQGAGFYVNATQAPWNRHYQMYDYVVNELPELIESMFPVSDKRAIAGHSMGGHGALTIALRNPERYQSVSAFSPINNPVNCPWGQKAFTAYLGKDTDTWREYDASLLMRAAKQYVPALVDQGEADNFLAEQLKPEVLEAAASSNNYPLELRSHEGYDHSYYFIASFIEDHLRFHSNYLNA
Regarding B10, in series [4] (0.4 M NaCl), the Km was found to be 500 ± 100 µM, the kcat is 1.8 ± 0.2 s⁻¹ and the kcat/Km is 4000 M⁻¹ s⁻¹.
